We go through 1 molecule from PMC3498520 (Journal of the American Chemical Society, 2012).

The experiment is classed as biochemical. The settings on record: total turnovers in ART hydroxylation; purified P450, NADPH regeneration system, 12 h.

B1: wild-type P450BM3: catalytically self-sufficient fatty acid monooxygenase P450BM3 from Bacillus megaterium (protein, UniProt P14779 1-1049, looked up)
Bifunctional cytochrome …: MTIKEMPQPKTFGELKNLPLLNTDKPVQALMKIADELGEIFKFEAPGRVTRYLSSQRLIKEACDESRFDKNLSQALKFVRDFAGDGLFTSWTHEKNWKKAHNILLPSFSQQAMKGYHAMMVDIAVQLVQKWERLNADEHIEVPEDMTRLTLDTIGLCGFNYRFNSFYRDQPHPFITSMVRALDEAMNKLQRANPDDPAYDENKRQFQEDIKVMNDLVDKIIADRKASGEQSDDLLTHMLNGKDPETGEPLDDENIRYQIITFLIAGHETTSGLLSFALYFLVKNPHVLQKAAEEAARVLVDPVPSYKQVKQLKYVGMVLNEALRLWPTAPAFSLYAKEDTVLGGEYPLEKGDELMVLIPQLHRDKTIWGDDVEEFRPERFENPSAIPQHAFKPFGNGQRACIGQQFALHEATLVLGMMLKHFDFEDHTNYELDIKETLTLKPEGFVVKAKSKKIPLGGIPSPSTEQSAKKVRKKAENAHNTPLLVLYGSNMGTAEGTARDLADIAMSKGFAPQVATLDSHAGNLPREGAVLIVTASYNGHPPDNAKQFVDWLDQASADEVKGVRYSVFGCGDKNWATTYQKVPAFIDETLAAKGAENIADRGEADASDDFEGTYEEWREHMWSDVAAYFNLDIENSEDNKSTLSLQFVDSAADMPLAKMHGAFSTNVVASKELQQPGSARSTRHLEIELPKEASYQEGDHLGVIPRNYEGIVNRVTARFGLDASQQIRLEAEEEKLAHLPLAKTVSVEELLQYVELQDPVTRTQLRAMAAKTVCPPHKVELEALLEKQAYKEQVLAKRLTMLELLEKYPACEMKFSEFIALLPSIRPRYYSISSSPRVDEKQASITVSVVSGEAWSGYGEYKGIASNYLAELQEGDTITCFISTPQSEFTLPKDPETPLIMVGPGTGVAPFRGFVQARKQLKEQGQSLGEAHLYFGCRSPHEDYLYQEELENAQSEGIITLHTAFSRMPNQPKTYVQHVMEQDGKKLIELLDQGAHFYICGDGSQMAPAVEATLMKSYADVHQVSEADARLWLQQLEEKGRYAKDVWAG
With B1, the TTN result is “no ART-oxidation activity”.
